Here are results for 1 molecule from article PMC9981704, “PARP1 allows proper telomere replication through TRF1 poly (ADP-ribosyl)ation and helicase recruitment”.

The target of data set [1] is TRF1 (unmodified, His-tagged full length) (human, UniProt P54274 1-439). Briefly: EMSA; unmodified TRF1, 1 ug protein, 0.5 ng DNA; 20 mM Hepes pH 7.9, 100 mM NaCl, 50 mM KCl, 1 mM MgCl2, 0.1 mM EDTA, 1 mM DTT, 5% glycerol, 0.5 mg/ml BSA, 0.1% NP-40; 4 °C, 90 min; native 4.5% PAGE. Particulars: protein: recombinant; tags: His (pTrc-HisB); chain copies: 2; label: 32P 5' end label (T4 PNK); blunt.
TRF1 (unmodified, His-tagged full length), sequence (P54274 whole entry): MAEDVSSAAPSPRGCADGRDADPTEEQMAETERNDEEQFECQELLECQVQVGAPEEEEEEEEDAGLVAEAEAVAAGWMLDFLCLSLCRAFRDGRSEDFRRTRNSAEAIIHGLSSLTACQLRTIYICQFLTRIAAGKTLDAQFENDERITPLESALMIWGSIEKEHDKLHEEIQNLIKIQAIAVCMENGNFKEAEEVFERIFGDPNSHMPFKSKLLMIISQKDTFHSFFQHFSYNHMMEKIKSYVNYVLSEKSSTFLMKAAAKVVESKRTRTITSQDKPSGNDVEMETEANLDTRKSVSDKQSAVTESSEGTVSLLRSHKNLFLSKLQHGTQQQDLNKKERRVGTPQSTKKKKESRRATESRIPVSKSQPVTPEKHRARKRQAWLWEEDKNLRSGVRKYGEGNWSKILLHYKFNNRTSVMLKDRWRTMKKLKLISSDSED

In data set [2] the target is PARP1 (high specific activity) (human, UniProt P09874 1-1014). Briefly: EMSA; PARP1 alone, control from PARylation reaction; did not affect DNA migration; 20 mM Hepes pH 7.9, 100 mM NaCl, 50 mM KCl, 1 mM MgCl2, 0.1 mM EDTA, 1 mM DTT, 5% glycerol, 0.5 mg/ml BSA, 0.1% NP-40; 4 °C, 90 min; native 4.5% PAGE. The settings on record: protein: commercial; label: 32P 5' end label (T4 PNK); blunt.
PARP1 (high specific activity), sequence (P09874 whole entry): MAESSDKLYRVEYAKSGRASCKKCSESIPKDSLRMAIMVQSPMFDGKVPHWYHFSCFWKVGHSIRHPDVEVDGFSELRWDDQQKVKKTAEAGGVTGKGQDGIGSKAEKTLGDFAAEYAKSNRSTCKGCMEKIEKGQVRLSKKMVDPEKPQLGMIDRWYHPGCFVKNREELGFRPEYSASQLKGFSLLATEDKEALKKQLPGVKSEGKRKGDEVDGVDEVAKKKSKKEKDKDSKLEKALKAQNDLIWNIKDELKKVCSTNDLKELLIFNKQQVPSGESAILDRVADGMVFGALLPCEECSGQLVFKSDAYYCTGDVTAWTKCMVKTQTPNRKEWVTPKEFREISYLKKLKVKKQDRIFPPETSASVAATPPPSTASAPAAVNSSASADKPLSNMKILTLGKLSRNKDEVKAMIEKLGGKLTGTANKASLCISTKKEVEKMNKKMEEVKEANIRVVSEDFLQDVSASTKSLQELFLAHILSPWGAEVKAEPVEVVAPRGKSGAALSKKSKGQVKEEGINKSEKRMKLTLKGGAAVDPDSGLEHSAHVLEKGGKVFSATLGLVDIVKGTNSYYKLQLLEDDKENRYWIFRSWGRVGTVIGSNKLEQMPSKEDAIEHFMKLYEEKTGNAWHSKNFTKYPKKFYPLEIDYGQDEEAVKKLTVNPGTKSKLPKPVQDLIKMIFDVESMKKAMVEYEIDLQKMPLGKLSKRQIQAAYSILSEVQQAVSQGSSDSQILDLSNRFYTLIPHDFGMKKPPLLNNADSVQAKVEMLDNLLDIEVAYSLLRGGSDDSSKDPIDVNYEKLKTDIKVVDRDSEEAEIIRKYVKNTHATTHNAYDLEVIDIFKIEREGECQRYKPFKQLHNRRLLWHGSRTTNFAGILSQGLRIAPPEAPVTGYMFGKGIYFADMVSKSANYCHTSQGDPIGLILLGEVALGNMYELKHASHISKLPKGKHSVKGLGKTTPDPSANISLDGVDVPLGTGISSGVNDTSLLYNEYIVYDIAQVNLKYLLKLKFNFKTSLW

B1: telomeric duplex DNA (dsDNA)
DNA 1: GGGTTAGGGTTAGGGTTAGGGTTAGGGTTAGGGTTAGGGTTAGGGCCCCTC
DNA 2: GAGGGGCCCTAACCCTAACCCTAACCCTAACCCTAACCCTAACCCTAACCC
On to B1, for which the figures for the binding result in data set [1] and in data set [2] were “binds” and “no binding”, respectively.
